Source: article PMC4800418, “A two-component system regulates gene expression of the type IX secretion component proteins via an ECF sigma factor” (Scientific Reports, 2016)

Experiments:
[1] = target: T1, rSigP (ECF sigma factor) (Porphyromonas gingivalis ATCC 33277) (UniProt B2RHE8); test: EMSA
T1 sequence: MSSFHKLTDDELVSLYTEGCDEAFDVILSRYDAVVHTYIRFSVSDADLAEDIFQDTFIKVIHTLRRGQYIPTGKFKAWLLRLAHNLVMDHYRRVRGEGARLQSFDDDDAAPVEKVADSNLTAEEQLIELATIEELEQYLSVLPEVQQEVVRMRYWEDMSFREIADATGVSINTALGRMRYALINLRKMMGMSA

recombinant PorX (rPorX) [2] = target: T2, recombinant PorX (rPorX) (Porphyromonas gingivalis ATCC 33277, UniProt B2RJJ3 1-518); test: SPR
T2 chain: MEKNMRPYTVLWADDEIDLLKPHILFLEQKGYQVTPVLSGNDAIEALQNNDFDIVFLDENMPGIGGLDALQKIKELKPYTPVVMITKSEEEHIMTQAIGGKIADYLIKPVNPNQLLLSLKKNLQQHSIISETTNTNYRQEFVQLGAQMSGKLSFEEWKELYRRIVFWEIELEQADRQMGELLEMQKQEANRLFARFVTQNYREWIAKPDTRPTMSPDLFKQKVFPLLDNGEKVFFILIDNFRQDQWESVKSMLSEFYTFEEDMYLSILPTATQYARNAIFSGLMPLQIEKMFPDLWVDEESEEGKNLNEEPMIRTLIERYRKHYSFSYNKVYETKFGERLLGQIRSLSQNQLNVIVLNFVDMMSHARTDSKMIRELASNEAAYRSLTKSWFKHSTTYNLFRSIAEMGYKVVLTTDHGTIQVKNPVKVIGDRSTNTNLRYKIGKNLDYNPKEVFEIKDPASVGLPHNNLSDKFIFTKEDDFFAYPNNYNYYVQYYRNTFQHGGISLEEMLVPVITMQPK

recombinant PorX (rPorX) [3] = target: T3, recombinant PorX (rPorX) (Porphyromonas gingivalis ATCC 33277, UniProt B2RJJ3 1-518); test: SPR; conditions: both partners purified
T3 construct: also called PGN_1019; source: E. coli BL21(DE3), purified (Ni-NTA agarose)
T3 sequence: T2 chain

Molecule: ACATTATTTATATATCTGCTTCGCTGCTCTCCCCGAATCCTGCGCTAAGGCAGTTTTCAGAGGAAACGAATGCTTTTATACTTTGCATCTCTATTCTTCGTATTGCTCAATGGGAAAGAA (double strand) [porK 5'-adjacent region probe]
- binding [1]: no binding

Molecule: ATAATTATTGTTGTGAGGTAGGTTATGCAAATCTACGAACGAGATGTTCTAAATACCGATTCGCGCAAAAATACAATATCTTTGCTGCATAAGGCGTTGA (double strand) [porT promoter probe]
- binding [1]: binds

Molecule: ATTTCGTTCGTTTTGTTTTGTATTCTTATCGGGGTCTATGAATATTCAATATCGTAAACGGCAGAACTGCTTCGGCTATTGTGCTACCACGATCATTTTCTTGGCCATGGAGGCCGTCTG (double strand) [porV promoter probe]
- binding [1]: binds

Molecule: GCAAAGAGGATTTTTTCTTCAACGAAGAAGAGTACTGATAATGTAATCTCCTTAAGCGAATATGCCCCGGATGTGCAATAATAGCACTCGGGGCTTCGTTTTACCACCGTGGCATCAGTC (double strand) [porP promoter probe]
- binding [1]: binds

Molecule: GGCTATACGCAAAGCAGTCAAGTCCATTCTCTCCGAGGATTCGTCCTTAGCTGTCGAAGATATTATCAAGCGAGCATTACGAATGTTATAACCTTTTCTC (double strand) [sov 5'-adjacent region probe]
- binding [1]: no binding

Molecule: TTAGTGACTGAAATGCGATTGCCCTGTTACAAACGGACTTGATACAACATTTTCCCTACTTTTGCGTTAGTTTCCTATAGTAATAAACAACACTATGGTG (double strand) [ruvA promoter probe]
- binding [1]: binds

B1: recombinant SigP (rSigP) (natural protein)
chain: T1 sequence
notes: source: E. coli BL21(DE3), purified (Ni-NTA agarose)
- koff (recombinant PorX (rPorX) [2]): 0.000529 s⁻¹
- Kd (recombinant PorX (rPorX) [3]): 78.3 nM
